Data from patent US20120172295A1 (INDIANA UNIVERSITY RESEARCH AND TECHNOLOGY, published 2012).
Read-outs that look alike come from different tables or passages of the source. Starred links: 1 amine or outer side, 2 acyl side, 3 side chain; linkers in the order of their positions; H or OH if unused. Non-standard residues stand in square brackets, D forms with d. Groups on a side chain read outwards from the residue. Primed or numbered codes have the meaning given here. No end group written: not given here. *: point of attachment. PEG 40 kDa = 40 kDa polyethylene glycol attached to Cys; PEG 40 kDa″ = 40 kDa polyethylene glycol; γGlu = O=C(O)[C@H](CCC(=O)[*:2])N[*:1]; Stearoyl = CCCCCCCCCCCCCCCCCC(=O)*; Palmitoyl = CCCCCCCCCCCCCCCC(=O)*; Myristoyl = CCCCCCCCCCCCCC(=O)*; Octanoyl = CCCCCCCC(=O)*; Aib = CC(C)(N)C(=O)O

Legend:
Assay in all cases: cell-based or functional assay
[1] = molecular target: T1, glucagon receptor (UniProt P47871 26-477, limits assumed)
T1 sequence (P47871 26-477 limits assumed): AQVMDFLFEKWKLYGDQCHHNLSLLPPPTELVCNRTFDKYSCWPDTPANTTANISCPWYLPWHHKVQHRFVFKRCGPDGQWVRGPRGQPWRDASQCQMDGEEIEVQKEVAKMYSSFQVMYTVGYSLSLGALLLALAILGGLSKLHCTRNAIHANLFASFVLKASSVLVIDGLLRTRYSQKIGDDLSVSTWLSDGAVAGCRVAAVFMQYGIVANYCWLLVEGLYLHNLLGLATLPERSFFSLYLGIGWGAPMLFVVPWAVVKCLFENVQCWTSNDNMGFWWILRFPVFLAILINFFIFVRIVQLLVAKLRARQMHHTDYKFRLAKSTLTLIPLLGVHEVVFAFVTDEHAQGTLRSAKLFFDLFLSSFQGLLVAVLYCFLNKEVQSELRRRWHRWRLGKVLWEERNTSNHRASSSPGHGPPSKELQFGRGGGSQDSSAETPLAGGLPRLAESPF

[2] = molecular target: T2, GLP-1 receptor (UniProt P43220 24-463, limits assumed)
[3] = molecular target: T1, glucagon receptor; remark: listed apart in the source
[4] = molecular target: T2, GLP-1 receptor; remark: listed apart in the source
[5] = molecular target: T2, GLP-1 receptor; remark: listed apart in the source
[6] = molecular target: T1, glucagon receptor; remark: listed apart in the source
[7] = molecular target: T2, GLP-1 receptor; remark: listed apart in the source
[8] = molecular target: T1, glucagon receptor; remark: listed apart in the source
[9] = molecular target: T2, GLP-1 receptor; remark: listed apart in the source
[10] = molecular target: T1, glucagon receptor; remark: listed apart in the source
[11] = molecular target: T2, GLP-1 receptor; remark: listed apart in the source
[12] = molecular target: T2, GLP-1 receptor; remark: listed apart in the source
[13] = molecular target: T2, GLP-1 receptor; remark: listed apart in the source

Work on H[Aib]QGTFTSDK(Stearoyl)SKYLDEQAAKEFIC(PEG 40 kDa″)WLMNT-NH2 [C18 acylated Glucagon analog peptide (SEQ ID NO: 537)] yielded an EC50 [1] of 8.55 nM and an EC50 [2] of 0.0118 nM.

HSQGTFTSDK([Trp-Stearoyl])SKYLDERRAKDFVC(PEG 40 kDa)WLMNT-NH2 [E16 K20-glucagon-NH2 with K10-W-C18 and C24-40K PEG (SEQ ID NO: 548)] gave an EC50 [3] of 1.3 nM, an EC50 [4] of 1.64 nM and an EC50 [1] of 1.29 nM. For the same binder, the EC50 [5] was 1.64 nM.

B1: Peptide 79** (SEQ ID NO: 620) (peptide)
peptide: H[Aib]QGTFTSDK([Ala-Ala-Palmitoyl])SKYLD[Aib]RRAQDFVCWLMNT-NH2
modifications: N-terminus assumed
SMILES: CCCCCCCCCCCCCCCC(=O)N[C@@H](C)C(=O)N[C@@H](C)C(=O)NCCCC[C@H](NC(=O)[C@H](CC(=O)O)NC(=O)[C@H](CO)NC(=O)[C@@H](NC(=O)[C@H](Cc1ccccc1)NC(=O)[C@@H](NC(=O)CNC(=O)[C@H](CCC(N)=O)NC(=O)C(C)(C)NC(=O)[C@@H](N)Cc1c[nH]cn1)[C@@H](C)O)[C@@H](C)O)C(=O)N[C@@H](CO)C(=O)N[C@@H](CCCCN)C(=O)N[C@@H](Cc1ccc(O)cc1)C(=O)N[C@@H](CC(C)C)C(=O)N[C@@H](CC(=O)O)C(=O)NC(C)(C)C(=O)N[C@@H](CCCNC(=N)N)C(=O)N[C@@H](CCCNC(=N)N)C(=O)N[C@@H](C)C(=O)N[C@@H](CCC(N)=O)C(=O)N[C@@H](CC(=O)O)C(=O)N[C@@H](Cc1ccccc1)C(=O)N[C@H](C(=O)N[C@@H](CS)C(=O)N[C@@H](Cc1c[nH]c2ccccc12)C(=O)N[C@@H](CC(C)C)C(=O)N[C@@H](CCSC)C(=O)N[C@@H](CC(N)=O)C(=O)N[C@H](C(N)=O)[C@@H](C)O)C(C)C
B1 gave an EC50 [6] of 0.01 nM and an EC50 [7] of 0.008 nM.

Work on HXQGTFTSDKSKYLDERRAKDFVQWLMNT (d-Ser at 2; Lys 10 acylated with C14; C-terminal amide) [Peptide dS2K10(C14)E16K20-Gluc Amide] yielded an EC50 [8] of 0.155 nM and an EC50 [9] of 0.041 nM.

Work on HSQGTFTSDK([Glu-Palmitoyl])SKYLDERRAKDFVQWLMNT-NH2 [Peptide D (Example 22)] yielded an EC50 [10] of 0.062 nM and an EC50 [11] of 0.056 nM.

In the case of H[Aib]QGTFTSDK(Myristoyl)SKYLDEQAAKEFIC(PEG 40 kDa)WLMNT-NH2 [C14 acylated Glucagon analog peptide (SEQ ID NO: 535)], the EC50 [12] is reported as 0.044 nM and the EC50 [2] is reported as 0.0168 nM.

HXQGTFTSDYSKYLDERRAKDFVQWLMNTK (d-Ser at 2; Lys 30 acylated with C14; C-terminal amide) [Peptide dS2E16K20K30-C14 Gluc Amide] gave an EC50 [8] of 3.53 nM and an EC50 [9] of 0.84 nM.

With H[Aib]QGTFTSDK(Palmitoyl)SKYLDEQAAKEFIC(PEG 40 kDa)WLMNT-NH2 [C16 acylated Glucagon analog peptide (SEQ ID NO: 536)] the EC50 [12] was 0.033 nM, the EC50 [1] was 17.4 nM and the EC50 [5] was 0.05 nM. The EC50 [2] was 0.0127 nM.

B2: Peptide 78** (SEQ ID NO: 617) (peptide)
peptide: H[Aib]QGTFTSDK([γGlu-γGlu-Myristoyl])SKYLD[Aib]RRAQDFVCWLMNT-NH2
modifications: N-terminus assumed
SMILES: CCCCCCCCCCCCCC(=O)N[C@@H](CCC(=O)N[C@@H](CCC(=O)NCCCC[C@H](NC(=O)[C@H](CC(=O)O)NC(=O)[C@H](CO)NC(=O)[C@@H](NC(=O)[C@H](Cc1ccccc1)NC(=O)[C@@H](NC(=O)CNC(=O)[C@H](CCC(N)=O)NC(=O)C(C)(C)NC(=O)[C@@H](N)Cc1c[nH]cn1)[C@@H](C)O)[C@@H](C)O)C(=O)N[C@@H](CO)C(=O)N[C@@H](CCCCN)C(=O)N[C@@H](Cc1ccc(O)cc1)C(=O)N[C@@H](CC(C)C)C(=O)N[C@@H](CC(=O)O)C(=O)NC(C)(C)C(=O)N[C@@H](CCCNC(=N)N)C(=O)N[C@@H](CCCNC(=N)N)C(=O)N[C@@H](C)C(=O)N[C@@H](CCC(N)=O)C(=O)N[C@@H](CC(=O)O)C(=O)N[C@@H](Cc1ccccc1)C(=O)N[C@H](C(=O)N[C@@H](CS)C(=O)N[C@@H](Cc1c[nH]c2ccccc12)C(=O)N[C@@H](CC(C)C)C(=O)N[C@@H](CCSC)C(=O)N[C@@H](CC(N)=O)C(=O)N[C@H](C(N)=O)[C@@H](C)O)C(C)C)C(=O)O)C(=O)O
B2 gave an EC50 [6] of 0.009 nM and an EC50 [7] of 0.008 nM.

H[Aib]QGTFTSDK(Octanoyl)SKYLDEQAAKEFIC(PEG 40 kDa)WLMNT-NH2 [C8 acylated Glucagon analog peptide (SEQ ID NO: 534)] was tested, and the EC50 [12] was 0.058 nM and the EC50 [2] was 0.0174 nM.

B3: Peptide 77** (SEQ ID NO: 616) (peptide)
peptide: H[Aib]QGTFTSDK(Myristoyl)SKYLD[Aib]RRAQDFVCWLMNT-NH2
modifications: N-terminus assumed
SMILES: CCCCCCCCCCCCCC(=O)NCCCC[C@H](NC(=O)[C@H](CC(=O)O)NC(=O)[C@H](CO)NC(=O)[C@@H](NC(=O)[C@H](Cc1ccccc1)NC(=O)[C@@H](NC(=O)CNC(=O)[C@H](CCC(N)=O)NC(=O)C(C)(C)NC(=O)[C@@H](N)Cc1c[nH]cn1)[C@@H](C)O)[C@@H](C)O)C(=O)N[C@@H](CO)C(=O)N[C@@H](CCCCN)C(=O)N[C@@H](Cc1ccc(O)cc1)C(=O)N[C@@H](CC(C)C)C(=O)N[C@@H](CC(=O)O)C(=O)NC(C)(C)C(=O)N[C@@H](CCCNC(=N)N)C(=O)N[C@@H](CCCNC(=N)N)C(=O)N[C@@H](C)C(=O)N[C@@H](CCC(N)=O)C(=O)N[C@@H](CC(=O)O)C(=O)N[C@@H](Cc1ccccc1)C(=O)N[C@H](C(=O)N[C@@H](CS)C(=O)N[C@@H](Cc1c[nH]c2ccccc12)C(=O)N[C@@H](CC(C)C)C(=O)N[C@@H](CCSC)C(=O)N[C@@H](CC(N)=O)C(=O)N[C@H](C(N)=O)[C@@H](C)O)C(C)C
In the case of B3, the EC50 [6] is reported as 0.144 nM and the EC50 [7] is reported as 0.063 nM.

For HSQGTFTSDK(Stearoyl)SKYLDERRAKDFVQWLMNT-NH2 [E16 K20-glucagon-NH2 with K10-C18], the EC50 [13] was 0.03 nM and the EC50 [11] was 0.032 nM.

B4: Peptide 80** (SEQ ID NO: 619) (peptide)
peptide: H[Aib]QGTFTSDK([γGlu-γGlu-Palmitoyl])SKYLD[Aib]RRAQDFVCWLMNT-NH2
modifications: N-terminus assumed
SMILES: CCCCCCCCCCCCCCCC(=O)N[C@@H](CCC(=O)N[C@@H](CCC(=O)NCCCC[C@H](NC(=O)[C@H](CC(=O)O)NC(=O)[C@H](CO)NC(=O)[C@@H](NC(=O)[C@H](Cc1ccccc1)NC(=O)[C@@H](NC(=O)CNC(=O)[C@H](CCC(N)=O)NC(=O)C(C)(C)NC(=O)[C@@H](N)Cc1c[nH]cn1)[C@@H](C)O)[C@@H](C)O)C(=O)N[C@@H](CO)C(=O)N[C@@H](CCCCN)C(=O)N[C@@H](Cc1ccc(O)cc1)C(=O)N[C@@H](CC(C)C)C(=O)N[C@@H](CC(=O)O)C(=O)NC(C)(C)C(=O)N[C@@H](CCCNC(=N)N)C(=O)N[C@@H](CCCNC(=N)N)C(=O)N[C@@H](C)C(=O)N[C@@H](CCC(N)=O)C(=O)N[C@@H](CC(=O)O)C(=O)N[C@@H](Cc1ccccc1)C(=O)N[C@H](C(=O)N[C@@H](CS)C(=O)N[C@@H](Cc1c[nH]c2ccccc12)C(=O)N[C@@H](CC(C)C)C(=O)N[C@@H](CCSC)C(=O)N[C@@H](CC(N)=O)C(=O)N[C@H](C(N)=O)[C@@H](C)O)C(C)C)C(=O)O)C(=O)O
B4 showed an EC50 [6] of 0.006 nM and an EC50 [7] of 0.008 nM.

For HXQGTFTSDYSKYLDERRAKDFVQWLMNTK (d-Ser at 2; Lys 30 acylated with C16; C-terminal amide) [Peptide dS2E16K20K30-C16 Gluc Amide], the EC50 [8] was 4.89 nM and the EC50 [9] was 3.05 nM.

With H[Aib]QGTFTSDKSKYLDEQAAKEFIC(PEG 40 kDa)WLMNT-NH2 [Non-acylated Glucagon analog peptide (SEQ ID NO: 580)] the EC50 [12] was 0.095 nM.
